Target: integrin alpha(IIb)beta(3) (UniProt P08514)
Assay: cell-based or functional assay

B1: trimucrin variant RR (protein)
chain: EAGEECDCGSPENPCCDAATCKLRPGAQCAEGLCCDQCRFKKKRTICRRAKGDRRDDRCTGQSADCPRNRLYG
  IC50: platelet aggregation (ADP-induced, platelet-rich plasma): 52.5 nM

From patent US20240084280A1
